Experimental data taken from EP4703383A1 (Shenzhen Genuine Biomedical Technology Co., Ltd, dated 2026).

T1: extracellular segment of human PRLR protein with avi-(his)6 tag (hPRLR-ECD-avi-his) (human, UniProt P16471 25-234)
T1 construct: The assays say only 'monomeric human PRLR extracellular domain / ECD'; also called human PRLR extracellular domain; monomeric PRLR ECD
T1 sequence: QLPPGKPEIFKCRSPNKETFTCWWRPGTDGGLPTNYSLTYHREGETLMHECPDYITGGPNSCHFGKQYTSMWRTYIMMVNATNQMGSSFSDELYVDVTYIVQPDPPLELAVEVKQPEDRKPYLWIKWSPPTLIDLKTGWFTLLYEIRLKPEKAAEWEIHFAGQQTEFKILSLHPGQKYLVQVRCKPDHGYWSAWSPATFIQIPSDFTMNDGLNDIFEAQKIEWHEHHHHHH


Experiments:
[1] = target: T2, recombinant mesothelin protein with the same tag; assay: ELISA, coated antigen 1 ug/mL, antibody 10 ug/mL
T2 construct: Control antigen of the species-specific ELISA; also called Control protein

[2] = target: T1, extracellular segment of human PRLR …; assay: ELISA, coated antigen 1 ug/mL, antibody 10 ug/mL
[3] = target: T1, extracellular segment of human PRLR …; assay: BLI (Octet), antibody on Protein A sensor, monomeric PRLR ECD in solution, 1:1 fit

| Binder | absorbance at 450nm [1] | absorbance at 450nm [2] | Kd [3] | koff [3] | kon [3] |
| --- | --- | --- | --- | --- | --- |
| HP-PR01C02 (antibody, V domains shown, also called Antibody No. 22) VH: DVHLVESGPGLVKPSQSLSLTCTVTGYSITSDYAWNWIRQFPGNKLEWMGYISYSGSTGYSPSLKSRVSITRDTSKNQFFLQLNSVTTEDTATYFCARNNWAFDFWGQGTTLTVSS VL: DIVLTQSPAIMSASPGEKVTMTCSASSSVNYMHWYQQKSGTSPKRWIYDTSKLASGVPARFSGSGSGTSYSLTISSMEAEDAATYYCQQWSSNPLTFGAGTKLELK | 0.072 |  |  |  |  |
| H-PR-B03 (antibody, V domains shown, also called Antibody No. 17) VH: QVQLKESGPGLVAPSQSLSITCTVSGFSLTGFGVNWFRQPPGRGLEWLGMIWGDGSTDYNSALKSRLSISKDNSKSQVFLKMNSLQTDDTARYYCARVLYYYGGNSFAYWGQGTLVTVSA VL: DVLMTQTPLSLPVSLGDQASISCRSSQSIVHSNGNTYLEWYLQKPGQSPKLLIYKVSSRFSGVPDRFSGSGSGTDFTLKISRVEAEDLGVYYCFQGSHVPYTFGGGTKLEIK | 0.067 |  |  |  |  |
| HP-PR02E11 (antibody, V domains shown, also called Antibody No. 19) VH: QVQLQQSGPGLVAPSQSLSITCTVSGFSLTSYGVNWVRQPPGKGLEWLGIIGAGGSTNYNSALMSRLSISKDNSKSQVFLKMNSLQTDDTAMYYCARSLYYYGSSSFAYWGQGTLVTVSA VL: DIVMTQTPLSLPVSLGDQASISCRSSQSIVHSNGNTYLEWYLQKPGQSPKLLIYKVSNRFSGVPDRFSGSGSGTDFTLKISRVEAEDLGVYYCFQGSHVPWTFGGGTKLELK | 0.111 |  |  |  |  |
| HP-PR01D12 (antibody, V domains shown, also called Antibody No. 20) VH: EVMLVESGGGLVQPGGSRKLSCAASGFTFSSFGMNWVRQAPEKGLEWVAYISSGSSIIYYADTVKGRFTISRDNPKNTLFLQMTSLRSEDTAMYYCTRFYGYIPFDYWGQGTTLTVSS VL: DIVMTQSPAIMSASPGEKVTMTCSASSSLIYMHWYQQKSSTSPKLWIYDTSKLASGVPGRFSGSGSGNSYSLTTSSMEAEDVATYYCFQGSGYPLTFGGGTKLEIK | 0.09 |  |  |  |  |
| P-PR-D04H (antibody, V domains shown, also called Antibody No. 9) VH: QVQLQQPGSELVRPGASVKLSCKASGYTFTSYWMHWVKQRPGQGLEWIGNIYPGSGSTNYDEKFKSKATLTVDTSSSTAYMQLSSLTSEDSAVYYCTRGNYRYYFDYWGQGTTLTVSS VL: not shown | 0.065 |  |  |  |  |
| P-PR-C08H (antibody, V domains shown, also called Antibody No. 6) VH: QVQLQQPGSELVRPGASVKLSCKASGFTFTTYWVHWVKQRPGQGLEWIGNISPGSGSTNYDEKFKSKASLTVDTFSNTAYMQLSSLTSEDSAVYYCIRHSGNYFNAMDYWGQGTTVTVSS VL: DIVMTQAAPSVPVTPGESVSISCRSSKSLLHSNGNTYLYWFLQRPGQSPQLLIYRMSNLASGVPDRFSGSGSGTAFTLRISRVEAEDVGVYYCMQHLEYPLTFGAGTKLELK | 0.065 | 2.2 | 0.00177 nM | 2.44e-07 s⁻¹ | 138000 M⁻¹ s⁻¹ |
| P-PR-C04W (antibody, V domains shown, also called Antibody No. 15) VH: QVQLQQPGSELVRPGASVKLSCKASGFTFTTYWVHWVKQRPGQGLEWIGNISPGSGSTNYDEKFKSKASLTVDTFSNTAYMQLSSLTSEDSAVYYCIRHSGNYFNAMDYWGQGTTVTVSS VL: DIVMTQAAPSVPVTPGESVSISCRSSKSLLHSNGNTYLYWFLQRPGQSPQLLIYRMSNLASGVPDRFSGSGSGTAFTLRISRVEAEDVGVYYCMQHLEYPLTFGAGTKLELK | 0.095 |  |  |  |  |
| P-PR-G02W (antibody, V domains shown, also called Antibody No. 11) VH: QVQLQQPGSELVRPGASVKLSCKASGFTFTTYWVHWVKQRPGQGLEWIGNISPGSGSTNYDEKFKSKASLTVDTFSNTAYMQLSSLTSEDSAVYYCIRHSGNYFNAMDYWGQGTTLTVSS VL: DIVMTQAAPSVPVTPGESVSISCRSSKSLLHSNGNTYLYWFLQRPGQSPQLLIYRMSNLASGVPDRFSGSGSGTAFTLRISRVEAEDVGVYYCMQHLEYPLTFGAGTKLELK | 0.07 |  |  |  |  |
| P-PR-B09W (antibody, V domains shown, also called Antibody No. 10) VH: QVQLQQPGSELVRPGASVKLSCKASGFTFTTFWVHWVKQRPGQGLEWIGNISPGGTSTNYDEKFKSKASLTVDTFSNTAYMQLSSLTSEDSAVYYCIRHSGNYFNAMDYWGQGTSVTVSS VL: DIVMTQAAPSVPVTPGESVSISCRSSKSLLHSNGNTYLYWFLQRPGQSPQLLIYRMSNLASGVPDRFSGSGSGTAFTLRISRVEAEDVGVYYCMQHLEYPLTFGAGTKLELK | 0.102 | 2.32 | 1.53 nM | 0.000287 s⁻¹ | 187000 M⁻¹ s⁻¹ |
| P-PR-H07W (antibody, V domains shown, also called Antibody No. 13) VH: QVQLQQPGSELVRPGASVKLSCKASGFTFATYWVHWVKQRPGQGLEWIGNISPGSVSTNYDEKFKSKASLTVDTFSNTAYMQLSSLTSEDSAVYYCIRHSGNYFNAMDYWGQGTTLTVSS VL: DIVMTQAAPSVPVTPGESVSISCRSSKSLLHSNGNTYLYWFLQRPGQSPQLLIYRMSNLASGVPDRFSGSGSGTAFTLRISRVEAEDVGVYYCMQHLEYPFTFGGGTKLEIK | 0.069 | 2.45 |  |  |  |
| P-PR-C05H (antibody, V domains shown, also called Antibody No. 3) VH: QVQLQQPGSELVRPGASVKLSCKASGFTFTTFWVHWVKQRPGQGLEWIGNISPGSTSTNYNEKFKNKASLTVDTFSNTAYMQLSSLTSEDSAVYYCIRHSGNYFNAMDYWGQGTSVTVSS VL: DIVMTQAAPSVPVTPGESVSISCRSSKSLLHSNGNTYLYWFLQRPGQSPQLLIYRMSNLASGVPDRFSGSGSGTAFTLRISRVEAEDVGIYYCMQHLEYPLTFGAGTKLELK | 0.116 | 2.14 | < 0.001 nM | 1.3e-07 s⁻¹ | 209000 M⁻¹ s⁻¹ |
| P-PR-C02H (antibody, V domains shown, also called Antibody No. 1) VH: QVQLQQPGSELVRPGASVRLSCKASGFTFTTYWVHWVKQRPGQGLEWIGNISPGSGSTNYDEKFKSKASLTVDTFSNTAYMQLSSLTSEDSAVYYCIRHSGNYFNAMDYWGQGTSVTVSS VL: DIVMTQATPSVPVAPGESVSISCRSSKSLLHTNGYTYLYWFLQRPGQSPQLLIYRMSNLASGVPDRFSGSGSGTAFTLRISRVEAEDVGVYYCMQHLEYPLTFGAGTKLELK | 0.098 | 2.14 | 0.0016 nM | 2.44e-07 s⁻¹ | 153000 M⁻¹ s⁻¹ |

More lines, now with the values ahead:

| absorbance at 450nm [1] | absorbance at 450nm [2] | Kd [3] | koff [3] | kon [3] | Binder |
| --- | --- | --- | --- | --- | --- |
| 0.054 |  |  |  |  | H-PR-B06 (antibody, V domains shown, also called Antibody No. 18) VH: DVKLVESGGGLVKPGGSLKLACAASGFTFSSYTMSWVRQTPEKRLEWVATISSGGSYTYYPDSVKGRFTISRDNAKNTLYLQLSSLKSEDTAMYYCTRDRYYSTTPDWYFDVWGAGTTVTVSS VL: DIVLTQSPATLSVTPGDSVSLSCRATQIIFNNLHWYQQKSHESPRLLITYTSQSISGIPSRFSGSGSGTDFTLTINSVETEDFGMYFCQQSNTWPRTFGGGTKLEIK |
| 0.064 |  |  |  |  | P-PR-H04W (antibody, V domains shown, also called Antibody No. 12) VH: QVQLQQPGSELVRPGASVKLSCKASGFTFTTYWVHWVKQRPGQGLEWIGNISPGSGSTNYDEKFKSKASLTVDTFSNTAYMQLSSLTSEDSAVYYCIRHSGNYFNAMDYWGQGTSVTVSS VL: DIVMTQAAPSVPVTPGESVSISCRSSKSLLHSNGNTYLYWFLQRPGQSPQLLIYRMSNLASGVPDRFSGSGSGTAFTLRISRVEAEDVGVYYCMQHLEYPFTFGSGTKLEIK |
| 0.091 | 2.24 | 2.7 nM | 0.00033 s⁻¹ | 122000 M⁻¹ s⁻¹ | P-PR-C12H (antibody, V domains shown, also called Antibody No. 7) VH: QVQLQQPGSELVRPGASVKLSCKASGFTFATYWVHWVKQRPGQGLEWIGNISPGSVSTNYDEKFKSKASLTVDTFSNTAYMQLSSLTSEDSAVYYCIRHSGNYFNAMDYWGQGTTLTVSS VL: DIVMTQAAPSVLVTPGESVSISCRSSKSLLHSNGNTYLYWFLQRPGQSPQLVIYRMSNLASGVPDRFSGSGSGTAFTLRISRVEAEDVGVYYCMQHLEYPFTFGAGTKLELK |
| 0.084 | 2.1 | 2.71 nM | 0.000663 s⁻¹ | 244000 M⁻¹ s⁻¹ | P-PR-C06H (antibody, V domains shown, also called Antibody No. 4) VH: QVQLQQPGSELVRPGASVKLSCKASGFTFTTYWVHWVKQRPGQGLEWIGNISPGSGSTNYDEKFKSKASLTVDTFSNTAYMQLSSLTSEDSAVYYCIRHSGNYFNAMDYWGQGTSVTVSS VL: DIVMTQAAPSVFVTPGESVSISCRSSKSLLHSNGNTYLYWFLQRPGQSPQLLIYQMSNRASGVPDRLSGSGSGTAFTLRISRVEAEDVGVYYCMQHLEYPFTFGGGTKLEIK |
| 0.09 | 2.15 |  |  |  | P-PR-C04H (antibody, V domains shown, also called Antibody No. 2) VH: QVQLQQPGSELVRPGASVKLSCKASGFTFTTYWVHWVKQRPGQGLEWIGNISPGGGSTNYDEKFKSKASLTVDTFSNTAYMQLSSLTSEDSAVYYCIRHSGNYFNAMDYWGQGTTVTVSS VL: DIVMTQAAPSVPVTPGESVSISCRSSKSLLHSNGNTYLYWFLQRPGQSPQLLIYRMSNLASGVPDRFSGSGSGTAFTLRISRVEAEDVGVYYCMQHLEYPFTFGSGTKLEIK |
| 0.054 | 2.32 |  |  |  | P-PR-H11W (antibody, V domains shown, also called Antibody No. 14) VH: QVQLQQPGSELVRPGASVKLSCKASGFTFTTFWVHWVKQRPGQGLEWIGNISPGSTSTNYNEKFKNKASLTVDTFSNTAYMQLSSLTSEDSAVYYCIRHSGNYFNAMDYWGQGTSVTVSS VL: DIVMTQAAPSVPVTPGESVSISCRSSKSLLHSNGNTYLYWFLQRPGQSPQLLIYRMSNLASGVPDRFSGSGSGTAFTLRISRVEAEDVGVYYCMQHLEYPFTFGGGTKLEIK |
